Results published in article doi:10.1101/2020.08.16.252742 (bioRxiv, 2020).

B1: anti-HIV-1 gp120 monoclonal antibody PGT145 (antibody, V domains shown)
VH: QVQLVQSGAEVKKPGSSVKVSCKASGNSFSNHDVHWVRQATGQGLEWMGWMSHEGDKTGLAQKFQGRVTITRDSGASTVYMELRGLTADDTAIYYCLTGSKHRLRDYFLYNEYGPNYEEWGDYLATLDVWGHGTAVTVSS
VL: EVVITQSPLFLPVTPGEAASLSCKCSHSLQHSTGANYLAWYLQRPGQTPRLLIHLATHRASGVPDRFSGSGSGTDFTLKISRVESDDVGTYYCMQGLHSPWTFGQGTKVEIK
B2: anti-HIV-1 gp41 monoclonal antibody 10E8 (antibody, V domains shown)
VH: EVQLVESGGGLVKPGGSLRLSCSASGFDFDNAWMTWVRQPPGKGLEWVGRITGPGEGWSVDYAAPVEGRFTISRLNSINFLYLEMNNLRMEDSGLYFCARTGKYYDFWSGYPPGEEYFQDWGRGTLVTVSS
VL: SYELTQETGVSVALGRTVTITCRGDSLRSHYASWYQKKPGQAPILLFYGKNNRPSGVPDRFSGSASGNRASLTISGAQAEDDAEYYCSSRDKSGSRLSVFGGGTKLTVL

Assays:
[1] = molecular target: HIV-1 NL4-3 Env glycoprotein (unlabelled) on HIV-1 Gag-GFP pseudovirions (HIV-1 group M subtype B, NL4-3 (pNL4-3), strain); assay: single-molecule photobleaching of immunostained virions
[2] = molecular target: HIV-1 JR-FL Env glycoprotein (unlabelled) on HIV-1 Gag-GFP pseudovirions (HIV-1 JR-FL, UniProt Q75760, strain); assay: as above

Binder	binding result [1]	binding result [2]
B1	binds	binds
B2	binds	binds
